Reference: patent US20050100540A1, “Platelet-activating factor acetylhydrolase” (priority 1993, published 2005)

Columns and labels:
[1] = Plasma PAF-AH activity in rats of the NEC experiments; assay type: in vivo, rat
Experimental: The plasma PAF-AH activities were also determined in the rats utilized in the experiment described above. PAF-AH activity was determined as follows. Prior to the tail vein injection, blood samples were obtained. Subsequently blood samples were obtained from the vena cava just prior to the injection of PAF and at the time of sacrifice. Approximately 50 μl of blood was collected in heparinized capillaries. The plasma was obtained following centrifugation (980×g for 5 minutes). The enzyme was assayed as previously described by Yasuda and Johnston, Endocrinology, 130:708-716 (1992).

[2] = Hydrolysis of long-chain sn-2 phospholipid by recombinant PAF-AH; assay type: biochemical; conditions: incubated with recombinant PAF-AH
Experimental: The most remarkable property of the PAF acetylhydrolase is its marked specificity for substrates with a short residue at the sn-2 position of the substrate. This strict specificity distinguishes PAF acetylhydrolase from other forms of PLA2. Thus, to determine if recombinant PAF-AH degrades phospholipids with long-chain fatty acids at the sn-2 position, hydrolysis of 1-palmitoyl-2-arachidonoyl-sn-glycero-3-phosphocholine (arachidonoylPC) was assayed since this is the preferred substrate for a well-characterized form of PLA2. […] In additional experiments, arachidonoylPC was included in a standard PAF hydrolysis assay at concentrations ranging from 0 to 125 μM to determine whether it inhibited the hydrolysis of PAF by recombinant PAF-AH. There was no inhibition of PAF hydrolysis even at the highest concentration of […], which was 5-fold greater than the concentration of PAF. […] Native plasma PAF-AH has several other properties that distinguish it from other phospholipases including calcium-independence and resistance to compounds that modify sulfhydryl groups or disrupt disulfides.

[3] = 2¼ hours after injection of 25,500 units

B1: PAF-AH: Recombinant human plasma platelet-activating factor acetylhydrolase (beginning at Ile42) expressed in E. coli from construct pUC trp AH (protein)
chain: IQVLMAAASFGQTKIPRGNGPYSVGCTDLMFDHTNKGTFLRLYYPSQDNDRLDTLWIPNKEYFWGLSKFLGTHWLMGNILRLLFGSMTTPANWNSPLRPGEKYPLVVFSHGLGAFRTLYSAIGIDLASHGFIVAAVEHRDRSASATYYFKDQSAAEIGDKSWLYLRTLKQEEETHIRNEQVRQRAKECSQALSLILDIDHGKPVKNALDLKFDMEQLKDSIDREKIAVIGHSFGGATVIQTLSEDQRFRCGIALDAWMFPLGDEVYSRIPQPLFFINSEYFQYPANIIKMKKCYSPDKERKMITIRGSVHQNFADFTFATGKIIGHMLKLKGDIDSNVAIDLSNKASLAFLQKHLGLHKDFDQWDCLIEGDDENLIPGTNINTTNQHIMLQNSSGIEKYN
For B1, the “Plasma PAF-AH activity at time of sacrifice, Group 2” value [1, 3] was 1771±308, the “Plasma PAF-AH activity at time of sacrifice, Group 4” value [1, 3] was 1939±478 and the “Plasma PAF-AH activity at time of sacrifice, groups 2 and 4” value [1, 3] was 1855±257 units. For the same molecule, the “Plasma PAF-AH activity after 15 minutes” value ([1]; 2040 units IV) was 363 units per ml of plasma, the “Plasma PAF-AH activity after 15 minutes, group 2” value ([1]; 25,500 units IV, 1 unit equals 1 nmoles×min^−1×ml^−1 plasma, no PAF) was 2249±341 units and the “Plasma PAF-AH activity after 15 minutes, group 4” value ([1]; 25,500 units IV, PAF group) was 2494±623 units. For the same molecule, the “Resultant plasma enzyme activity” value ([1]; less than 1,020 total units IV) was at most 160 and the “Hydrolysis of arachidonoylPC” value [2] was “not hydrolyzed”.
